In paper PMC5547898:

Target: Myc-tagged metabotropic glutamate receptor 5 (Myc-mGluR5) (UniProt P41594)
Assay: co-IP

UniProt P41594, sequence (P41594 21-1212): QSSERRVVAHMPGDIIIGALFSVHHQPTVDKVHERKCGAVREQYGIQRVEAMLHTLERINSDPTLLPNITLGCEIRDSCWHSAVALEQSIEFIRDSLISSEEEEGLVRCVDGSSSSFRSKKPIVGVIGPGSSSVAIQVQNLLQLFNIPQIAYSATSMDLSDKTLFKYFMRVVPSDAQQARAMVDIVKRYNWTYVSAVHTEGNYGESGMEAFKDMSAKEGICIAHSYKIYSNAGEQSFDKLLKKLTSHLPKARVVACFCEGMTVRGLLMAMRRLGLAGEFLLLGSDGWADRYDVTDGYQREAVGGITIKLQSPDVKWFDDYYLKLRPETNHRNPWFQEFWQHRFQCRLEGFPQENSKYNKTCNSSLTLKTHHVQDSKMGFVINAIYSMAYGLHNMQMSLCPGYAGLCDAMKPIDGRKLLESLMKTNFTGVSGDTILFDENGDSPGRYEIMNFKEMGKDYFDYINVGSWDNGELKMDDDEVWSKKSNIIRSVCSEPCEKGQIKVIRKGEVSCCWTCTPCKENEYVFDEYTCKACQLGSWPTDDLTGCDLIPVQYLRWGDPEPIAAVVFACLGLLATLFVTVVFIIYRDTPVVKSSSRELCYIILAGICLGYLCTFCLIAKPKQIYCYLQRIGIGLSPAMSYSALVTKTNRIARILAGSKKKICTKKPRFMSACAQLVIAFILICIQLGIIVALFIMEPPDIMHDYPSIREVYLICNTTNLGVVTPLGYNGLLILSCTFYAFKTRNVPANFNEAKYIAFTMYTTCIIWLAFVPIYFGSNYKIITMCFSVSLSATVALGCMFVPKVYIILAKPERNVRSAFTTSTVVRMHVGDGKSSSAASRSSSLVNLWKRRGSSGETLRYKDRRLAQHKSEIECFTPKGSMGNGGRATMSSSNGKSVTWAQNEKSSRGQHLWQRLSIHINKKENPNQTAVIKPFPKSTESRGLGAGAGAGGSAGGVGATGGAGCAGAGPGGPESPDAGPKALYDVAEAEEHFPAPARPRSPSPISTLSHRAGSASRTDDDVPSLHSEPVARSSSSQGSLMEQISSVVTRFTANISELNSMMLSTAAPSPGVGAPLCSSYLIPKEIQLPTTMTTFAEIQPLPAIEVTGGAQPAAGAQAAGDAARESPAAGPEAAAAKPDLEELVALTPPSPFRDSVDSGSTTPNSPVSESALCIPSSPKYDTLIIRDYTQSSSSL

In the case of “cellular prion protein (PrP^C) (from UniProt P04156 23-230) (natural protein)”, the fold increase of the co-immunoprecipitate with Aβo against without Aβo is reported as > 2 fold.
